Measured values as given in PMC6949598, “Structure-based mechanism of cysteine-switch latency and of catalysis by pappalysin-family metallopeptidases” (IUCrJ, 2020).

Target: T1, mature wild-type mirolysin (Tannerella forsythia, UniProt A0A0F7IPS1 55-331)
T1 construct: the model holds Pro58-Pro327; Holds one catalytic zinc and two calcium ions; disulfides Cys243-Cys271 and Cys262-Cys291; The promirolysin constructs were made in E. coli BL21 (DE3) as fusions with N-terminal GST and a PreScission site; also called mature mirolysin; CD; source: recombinant, prepared as previously described (Koneru et al., 2017)
Experiment: crystal structure; mature mirolysin incubated at 1:2 molar ratio with BFO_2662, which was cleaved; sitting drop, 4 °C, protein ~12 mg/ml in 5 mM Tris HCl, 50 mM NaCl, 5 mM CaCl2, pH 8.0; reservoir 40% ethanol, 5% PEG 1000, 0.1 M phosphate-citrate pH 4.2; 1.5 Å; one complex per asymmetric unit
Settings: both partners purified

B1: tetradecapeptide K110-K123 of small lipoprotein BFO_2662 (peptide)
peptide: KRDPVYFIKLSTIK
notes: segment K110-K123 of small lipoprotein BFO_2662, Tannerella forsythia; numbered Lys1-Lys14 in the structure; only the first seven residues were assigned unambiguously from the map; A citrate (CIT-1) in sub-site S1 belongs to molecule B of the model but is no part of the peptide; also called Lys1-Lys14; product; source: cleavage product of BFO_2662, cut by mirolysin during crystallization …
binding result: binds
